This test has as its target T1, HA-tagged Ddi1^Δ202-299 (yeast, UniProt P40087 1-428, Δ202-299).
T1 sequence (looked up): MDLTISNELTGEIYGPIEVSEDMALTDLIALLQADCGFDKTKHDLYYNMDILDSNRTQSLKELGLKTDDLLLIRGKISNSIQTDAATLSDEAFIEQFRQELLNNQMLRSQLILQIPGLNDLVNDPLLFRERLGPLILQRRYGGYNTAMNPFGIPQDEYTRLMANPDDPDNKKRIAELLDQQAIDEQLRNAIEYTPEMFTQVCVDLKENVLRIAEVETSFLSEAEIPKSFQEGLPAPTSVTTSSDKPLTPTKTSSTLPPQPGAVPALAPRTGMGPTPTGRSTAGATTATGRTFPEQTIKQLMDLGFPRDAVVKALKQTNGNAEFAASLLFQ
The experiment in a line: co-IP.

B1: Cdc48-GFP (natural protein, yeast, UniProt P25694 1-835, looked up)
chain: MGEEHKPLLDASGVDPREEDKTATAILRRKKKDNMLLVDDAINDDNSVIAINSNTMDKLELFRGDTVLVKGKKRKDTVLIVLIDDELEDGACRINRVVRNNLRIRLGDLVTIHPCPDIKYATRISVLPIADTIEGITGNLFDVFLKPYFVEAYRPVRKGDHFVVRGGMRQVEFKVVDVEPEEYAVVAQDTIIHWEGEPINREDEENNMNEVGYDDIGGCRKQMAQIREMVELPLRHPQLFKAIGIKPPRGVLMYGPPGTGKTLMARAVANETGAFFFLINGPEVMSKMAGESESNLRKAFEEAEKNAPAIIFIDEIDSIAPKRDKTNGEVERRVVSQLLTLMDGMKARSNVVVIAATNRPNSIDPALRRFGRFDREVDIGIPDATGRLEVLRIHTKNMKLADDVDLEALAAETHGYVGADIASLCSEAAMQQIREKMDLIDLDEDEIDAEVLDSLGVTMDNFRFALGNSNPSALRETVVESVNVTWDDVGGLDEIKEELKETVEYPVLHPDQYTKFGLSPSKGVLFYGPPGTGKTLLAKAVATEVSANFISVKGPELLSMWYGESESNIRDIFDKARAAAPTVVFLDELDSIAKARGGSLGDAGGASDRVVNQLLTEMDGMNAKKNVFVIGATNRPDQIDPAILRPGRLDQLIYVPLPDENARLSILNAQLRKTPLEPGLELTAIAKATQGFSGADLLYIVQRAAKYAIKDSIEAHRQHEAEKEVKVEGEDVEMTDEGAKAEQEPEVDPVPYITKEHFAEAMKTAKRSVSDAELRRYEAYSQQMKASRGQFSNFNFNDAPLGTTATDNANSNNSAPSGAGAAFGSNAEEDDDLYS
Turning to B1, the “fold more Cdc48 bound, normalized for the amount of precipitated Ddi1^Δ202-299” value was found to be 2.1 fold.

The values are drawn from paper PMC5896933 (Molecular Biology of the Cell, 2018).
